In patent publication US6998239 (CHEMOCENTRYX, dated 2006):

B1: human ELC (EBI1 ligand chemokine) (ligand, UniProt Q99731 22-98, looked up)
chain: GTNDAEDCCLSVTQKPIPGYIVRNFHYLLIKDGCRVPAVVFTTLRGRQLCAPPDQPWVERIIQRLQRTSAKMKRRSS
modifications: 125I label where used as radioligand
notes: also called MIP-3beta; MIP3beta
B2: mMIP-1gamma (murine macrophage inflammatory protein 1 gamma) (ligand, UniProt P51670 22-122, looked up)
chain: QITHATETKEVQSSLKAQQGLEIEMFHMGFQDSSDCCLSYNSRIQCSRFIGYFPTSGGCTRPGIIFISKRGFQVCANPSDRRVQRCIERLEQNSQPRTYKQ
notes: also called mMIP-1γ; CCF18
B3: human SLC (secondary lymphoid-tissue chemokine) (ligand, UniProt O00585 24-134, looked up)
chain: SDGGAQDCCLKYSQRKIPAKVVRSYRKQEPSLGCSIPAILFLPRKRSQAELCADPKELWVQQLMQHLDKTPSPQKPAQGCRKDRGASKTGKKGKGSKGCKRTERSQTPKGP
notes: also called 6Ckine
B4: murine CTACK (ligand, UniProt Q9Z1X0 26-120, looked up)
chain: LPLPSSTSCCTQLYRQPLPSRLLRRIVHMELQEADGDCHLQAVVLHLARRSVCVHPQNRSLARWLERQGKRLQGTVPSLNLVLQKKMYSHPQQQN
notes: also called mCTACK; CCL27
B5: murine TECK (ligand, UniProt O35903 24-144, looked up)
chain: QGAFEDCCLGYQHRIKWNVLRHARNYHQQEVSGSCNLRAVRFYFRQKVVCGNPEDMNVKRAMRILTARKRLVHWKSASDSQTERKKSNHMKSKVENPNSTSVRSATLGHPRMVMMPRKTNN
B6: murine ELC (ligand, UniProt O70460 26-108, looked up)
chain: GANDAEDCCLSVTQRPIPGNIVKAFRYLLNEDGCRVPAVVFTTLRGYQLCAPPDQPWVDRIIRRLKKSSAKNKGNSTRRSPVS
B7: human TECK (thymus expressed chemokine) (ligand, UniProt O15444 24-150, looked up)
chain: QGVFEDCCLAYHYPIGWAVLRRAWTYRIQEVSGSCNLPAAIFYLPKRHRKVCGNPKSREVQRAMKLLDARNKVFAKLHHNTQTFQAGPHAVKKLSSGNSKLSSSKFSNPISSSKRNVSLLISANSGL
modifications: 125I label where used as radioligand

Tests used:
[1] = molecular target: T1, human CCX CKR with N-terminal Flag epitope, stably expressed on HEK293 cells (human, UniProt Q9NPB9 1-350); experiment: radioligand binding competition on CCX CKR stable transfectants, Scatchard transformation
T1 construct: also called HEK293-CCX CKR cells
T1 sequence: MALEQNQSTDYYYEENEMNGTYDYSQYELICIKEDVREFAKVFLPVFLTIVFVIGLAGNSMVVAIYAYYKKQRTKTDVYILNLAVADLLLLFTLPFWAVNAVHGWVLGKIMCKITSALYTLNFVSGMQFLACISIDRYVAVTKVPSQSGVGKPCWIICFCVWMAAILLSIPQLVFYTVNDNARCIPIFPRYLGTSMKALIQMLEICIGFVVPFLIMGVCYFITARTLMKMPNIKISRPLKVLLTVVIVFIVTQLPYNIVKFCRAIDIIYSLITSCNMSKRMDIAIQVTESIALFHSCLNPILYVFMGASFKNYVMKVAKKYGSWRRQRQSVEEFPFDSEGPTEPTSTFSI

[2] = molecular target: T1, human CCX CKR with N-terminal Flag …; experiment: displacement of 125I-ELC or 125I-TECK from CCX CKR transfectants, 200 nM cold chemokine
[3] = molecular target: T1, human CCX CKR with N-terminal Flag …; experiment: radioligand binding competition on CCX CKR stable transfectants (similar experiments)

| Binder | binding result [2] | also measured |
| --- | --- | --- |
| B1 | – | binding result [1]: binds |
| B2 | binds | – |
| B3 | – | binding result [1]: binds |
| B4 | – | Kd [3]: ~9 nM |
| B5 | binds | – |
| B6 | binds | – |
| B7 | binds | – |
